Experimental data from patent US20250288643A1.

Target: monkey CD47 on LLC-MK2 cells (rhesus monkey) (UniProt H9ERV1)
Test: flow cytometry, LLC-MK2 cells

Q: Which EC50 (read off the curve) does the source give for Hu5F9-G4 (antibody) here?
A: 60 pM
